According to paper PMC4485566:

Columns and labels:
His79 = His79 (UniProt position 85, YIPGTHMAFGG); assay: UV-vis; conditions: ferric protein implied, His79-mediated alkaline transition
His73 = His73 (UniProt position 79, LTNPKHYIPGT); assay: UV-vis; conditions: ferric protein implied (alkaline transition); cited from earlier work

Substance “iso-1-cytochrome c, yWT/K79H variant (Saccharomyces cerevisiae; K79H)” has a pKa (His79) of 6.62 ± 0.08.

In the case of “iso-1-cytochrome c, WT*/K79H variant (Saccharomyces cerevisiae; K72A;K79H;C102S)”, the pKa (His79; cited from earlier work) is given as 6.35 ± 0.04.

In the case of “iso-1-cytochrome c, yWT/K73H variant (Saccharomyces cerevisiae; K73H)”, the pKa (His73) is given as 6.60 ± 0.06.
